pKd: −log10 of the molar value.
Tests used:
Conditions in all cases: none (in vitro transcript); 20 mM Tris-HCl pH 8, 50 mM NaCl, 1 mM MgCl2; 5 nM tRNA, 30 min incubation; temperature not stated
[1] = test system: EPRS linker R1R2R3 (human); experiment: fluorescence anisotropy
EPRS linker R1R2 (human) = experiment: fluorescence anisotropy
EPRS linker R2R3 (human) = experiment: fluorescence anisotropy
[2] = test system: EPRS linker (whole linker) (human); experiment: fluorescence quenching

Substance	pKd [1]	pKd (EPRS linker R1R2 (human))	pKd (EPRS linker R2R3 (human))	pKd [2]
human tRNALys3	7.37	6.68	< 5.00	6.23
human tRNAPro				6.35
human tRNAGlu				6.05
bovine tRNATrp				6.29

Source: publication PMC9967848
